The labels stand for the following.
B1: SPOPL (parent)
chain: AKREETKAMESQRAYRFVQGKDWG
B2: SNAP91 (parent)
chain: FATASAAVPVSTSKPSSDLLDLQP
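Also: lentivirally expressed fusions sorted by FACS into six bins by GFP to DsRed ratio, PSI derived from sequencing read proportions per bin multiplied by bin number.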

The variants in the first data set derive from B1. The data set can be described thus: protein stability index of a GFP-peptide fusion (GPS, HEK-293T) (PSI 1-6); higher = more stable. The conditions noted are these: c terminus: a fixed tail appended.
On to NKREETKAMESQRAYRFVQGKDWG, for which the protein stability index was 3.14.

On to RKREETKAMESQRAYRFVQGKDWG, for which the protein stability index stood at 2.49.

Take SKREETKAMESQRAYRFVQGKDWG: the protein stability index came out at 2.81.

EKREETKAMESQRAYRFVQGKDWG: the protein stability index amounted to 3.4.

CKREETKAMESQRAYRFVQGKDWG: the protein stability index is 2.14.

In the case of FKREETKAMESQRAYRFVQGKDWG, the protein stability index worked out at 3.61.

Turning to TKREETKAMESQRAYRFVQGKDWG, the protein stability index amounted to 2.93.

YKREETKAMESQRAYRFVQGKDWG: the protein stability index is 2.57.

In the case of KKREETKAMESQRAYRFVQGKDWG, the protein stability index was found to be 2.83.

Regarding WKREETKAMESQRAYRFVQGKDWG, the protein stability index is 2.61.

Regarding GKREETKAMESQRAYRFVQGKDWG, the protein stability index worked out at 2.82.

As for QKREETKAMESQRAYRFVQGKDWG, the protein stability index is 4.09.

With DKREETKAMESQRAYRFVQGKDWG, the protein stability index was found to be 3.38.

For IKREETKAMESQRAYRFVQGKDWG, the protein stability index was found to be 2.59.

For LKREETKAMESQRAYRFVQGKDWG, the protein stability index was determined as 2.55.

Take MKREETKAMESQRAYRFVQGKDWG: the protein stability index was 2.77.

For VKREETKAMESQRAYRFVQGKDWG, the protein stability index is 2.29.

Turning to PKREETKAMESQRAYRFVQGKDWG, the protein stability index amounted to 3.02.

As to HKREETKAMESQRAYRFVQGKDWG, the protein stability index worked out at 3.61.

APREETKAMESQRAYRFVQGKDWG: the protein stability index was found to be 3.3.

On to AVREETKAMESQRAYRFVQGKDWG, for which the protein stability index stood at 2.98.

As for AHREETKAMESQRAYRFVQGKDWG, the protein stability index was 2.93.

Regarding ANREETKAMESQRAYRFVQGKDWG, the protein stability index turned out to be 3.41.

As to AWREETKAMESQRAYRFVQGKDWG, the protein stability index was found to be 2.48.

For the variant AEREETKAMESQRAYRFVQGKDWG, the protein stability index is 3.61.

In the case of AYREETKAMESQRAYRFVQGKDWG, the protein stability index was found to be 2.74.

As to ALREETKAMESQRAYRFVQGKDWG, the protein stability index was 2.24.

With ARREETKAMESQRAYRFVQGKDWG, the protein stability index was 2.92.

Take ASREETKAMESQRAYRFVQGKDWG: the protein stability index is 2.85.

For AIREETKAMESQRAYRFVQGKDWG, the protein stability index was determined as 2.71.

AFREETKAMESQRAYRFVQGKDWG: the protein stability index was 2.81.

In the case of AGREETKAMESQRAYRFVQGKDWG, the protein stability index amounted to 2.6.

For AQREETKAMESQRAYRFVQGKDWG, the protein stability index was determined as 3.13.

For the variant AMREETKAMESQRAYRFVQGKDWG, the protein stability index came out at 2.06.

Consider AAREETKAMESQRAYRFVQGKDWG, for which the protein stability index was determined as 3.03.

As for ADREETKAMESQRAYRFVQGKDWG, the protein stability index was determined as 3.39.

In the case of ATREETKAMESQRAYRFVQGKDWG, the protein stability index amounted to 3.37.

In the case of ACREETKAMESQRAYRFVQGKDWG, the protein stability index stood at 1.75.

The variants in another data set derive from B2. Described as above. The conditions noted are these: c terminus: a fixed tail appended.
On to FATASAAVPVSTSKPSSDLLDLKP, for which the protein stability index worked out at 3.42.

Consider FATASAAVPVSTSKPSSDLLDLMP, for which the protein stability index turned out to be 3.29.

Take FATASAAVPVSTSKPSSDLLDLNP: the protein stability index came out at 4.08.

As for FATASAAVPVSTSKPSSDLLDLPP, the protein stability index worked out at 4.13.

FATASAAVPVSTSKPSSDLLDLCP: the protein stability index was 3.61.

In the case of FATASAAVPVSTSKPSSDLLDLRP, the protein stability index is 3.34.

Consider FATASAAVPVSTSKPSSDLLDLTP, for which the protein stability index was found to be 3.96.

Consider FATASAAVPVSTSKPSSDLLDLSP, for which the protein stability index was found to be 4.18.

Consider FATASAAVPVSTSKPSSDLLDLAP, for which the protein stability index stood at 3.5.

As to FATASAAVPVSTSKPSSDLLDLWP, the protein stability index came out at 2.69.

As to FATASAAVPVSTSKPSSDLLDLIP, the protein stability index is 2.92.

Turning to FATASAAVPVSTSKPSSDLLDLYP, the protein stability index was found to be 2.8.

As for FATASAAVPVSTSKPSSDLLDLFP, the protein stability index was 2.7.

Turning to FATASAAVPVSTSKPSSDLLDLHP, the protein stability index was 3.35.

As to FATASAAVPVSTSKPSSDLLDLGP, the protein stability index came out at 3.79.

Consider FATASAAVPVSTSKPSSDLLDLVP, for which the protein stability index came to 3.4.

For FATASAAVPVSTSKPSSDLLDLDP, the protein stability index was 3.97.

For the variant FATASAAVPVSTSKPSSDLLDLLP, the protein stability index turned out to be 3.38.

With FATASAAVPVSTSKPSSDLLDLEP, the protein stability index was 4.46.

With FATASAAVPVSTSKPSSDLLPLQP, the protein stability index turned out to be 3.79.

As to FATASAAVPVSTSKPSSDLLELQP, the protein stability index was 4.22.

FATASAAVPVSTSKPSSDLLVLQP: the protein stability index came out at 3.23.

Turning to FATASAAVPVSTSKPSSDLLCLQP, the protein stability index stood at 2.91.

On to FATASAAVPVSTSKPSSDLLQLQP, for which the protein stability index came out at 3.57.

For the variant FATASAAVPVSTSKPSSDLLKLQP, the protein stability index came out at 3.41.

On to FATASAAVPVSTSKPSSDLLFLQP, for which the protein stability index is 2.52.

FATASAAVPVSTSKPSSDLLNLQP: the protein stability index turned out to be 3.59.

Regarding FATASAAVPVSTSKPSSDLLWLQP, the protein stability index is 1.78.

Consider FATASAAVPVSTSKPSSDLLALQP, for which the protein stability index is 3.4.

Regarding FATASAAVPVSTSKPSSDLLSLQP, the protein stability index is 3.25.

Regarding FATASAAVPVSTSKPSSDLLLLQP, the protein stability index worked out at 2.48.

In the case of FATASAAVPVSTSKPSSDLLTLQP, the protein stability index amounted to 3.51.

For FATASAAVPVSTSKPSSDLLYLQP, the protein stability index came out at 2.67.

On to FATASAAVPVSTSKPSSDLLRLQP, for which the protein stability index worked out at 3.28.

As for FATASAAVPVSTSKPSSDLLILQP, the protein stability index was found to be 2.93.

FATASAAVPVSTSKPSSDLLGLQP: the protein stability index was determined as 4.09.

Turning to FATASAAVPVSTSKPSSDLLMLQP, the protein stability index came to 3.23.

In the case of FATASAAVPVSTSKPSSDLLHLQP, the protein stability index amounted to 3.27.

Turning to FATASAAVPVSTSKPSSDLRDLQP, the protein stability index came out at 4.09.

With FATASAAVPVSTSKPSSDLVDLQP, the protein stability index was found to be 4.12.

Consider FATASAAVPVSTSKPSSDLADLQP, for which the protein stability index is 4.

On to FATASAAVPVSTSKPSSDLIDLQP, for which the protein stability index came out at 3.62.

On to FATASAAVPVSTSKPSSDLGDLQP, for which the protein stability index is 4.12.

For the variant FATASAAVPVSTSKPSSDLPDLQP, the protein stability index worked out at 4.36.

Take FATASAAVPVSTSKPSSDLHDLQP: the protein stability index was 3.9.

On to FATASAAVPVSTSKPSSDLCDLQP, for which the protein stability index came out at 3.93.

Consider FATASAAVPVSTSKPSSDLKDLQP, for which the protein stability index is 4.33.

With FATASAAVPVSTSKPSSDLMDLQP, the protein stability index worked out at 3.74.

Consider FATASAAVPVSTSKPSSDLEDLQP, for which the protein stability index is 4.34.

For the variant FATASAAVPVSTSKPSSDLSDLQP, the protein stability index came out at 4.29.

Consider FATASAAVPVSTSKPSSDLQDLQP, for which the protein stability index was 4.14.

In the case of FATASAAVPVSTSKPSSDLFDLQP, the protein stability index stood at 3.15.

FATASAAVPVSTSKPSSDLNDLQP: the protein stability index was 3.61.

Consider FATASAAVPVSTSKPSSDLTDLQP, for which the protein stability index worked out at 3.92.

FATASAAVPVSTSKPSSDLWDLQP: the protein stability index was determined as 2.97.

For the variant FATASAAVPVSTSKPSSDLDDLQP, the protein stability index was 4.48.

Values taken from the supplement of paper PMC10567573.
